Results reported in patent US20120100140A1.
pIC50: −log10 of the molar value.

Assays:
CD16 (FcγRIIIa V158) [1] = target: CD16 (FcγRIIIa V158) (UniProt P08637); assay: solution affinity SPR: inhibition of CD16 binding to immobilized IgG1 MAb
CD64 (FcγRI) [2] = target: CD64 (FcγRI) (UniProt P12314); assay: solution affinity SPR: antibody titrated into CD64, inhibition of CD64 binding to immobilized IgG1 MAb; average of two titrations
CD64 (FcγRI) [3] = target: CD64 (FcγRI) (UniProt P12314); assay: solution affinity SPR: inhibition of CD64 binding to immobilized IgG1 MAb
CD32a = CD32a (UniProt P12318); assay: solution affinity SPR: inhibition of CD32a binding to immobilized IgG1 MAb
Sequence of CD32a (P12318 34-217 limits assumed): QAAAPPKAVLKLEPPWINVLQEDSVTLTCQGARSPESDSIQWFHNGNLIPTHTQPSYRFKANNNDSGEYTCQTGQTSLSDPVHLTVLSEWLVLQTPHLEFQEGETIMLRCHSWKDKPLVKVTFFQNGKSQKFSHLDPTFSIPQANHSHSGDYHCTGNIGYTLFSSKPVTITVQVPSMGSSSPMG

CD16 (FcγRIIIa V158) [4] = target: CD16 (FcγRIIIa V158) (UniProt P08637); assay: solution affinity SPR: antibody titrated into CD16, inhibition of CD16 binding to immobilized IgG1 MAb; average of two titrations

Sequence of CD64 (FcγRI) (P12314 16-288 limits assumed): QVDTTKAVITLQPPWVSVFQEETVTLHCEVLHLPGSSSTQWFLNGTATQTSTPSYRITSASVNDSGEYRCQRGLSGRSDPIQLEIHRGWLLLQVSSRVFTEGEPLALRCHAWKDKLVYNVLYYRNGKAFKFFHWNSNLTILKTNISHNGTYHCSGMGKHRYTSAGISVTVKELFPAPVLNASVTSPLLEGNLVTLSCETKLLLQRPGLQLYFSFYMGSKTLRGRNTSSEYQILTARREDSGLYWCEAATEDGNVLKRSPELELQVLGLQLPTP
Sequence of CD16 (FcγRIIIa V158) (P08637 17-208 F176V limits assumed): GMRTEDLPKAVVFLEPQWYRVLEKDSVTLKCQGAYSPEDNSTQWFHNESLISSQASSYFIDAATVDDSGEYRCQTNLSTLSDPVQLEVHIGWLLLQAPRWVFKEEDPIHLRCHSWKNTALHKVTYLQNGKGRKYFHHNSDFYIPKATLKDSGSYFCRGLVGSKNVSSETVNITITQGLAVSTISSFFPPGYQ

Row | Substance | pIC50 (CD16 (FcγRIIIa V158) [1]) | pIC50 (CD64 (FcγRI) [3]) | also measured
1 | CN578 (hu5c8 aglycosylated IgG1 T299K) (antibody) | 2.88 |  | pIC50 (CD64 (FcγRI) [2]): 2.85
2 | EAG2377 (hu5c8 aglycosylated IgG1 T299N) (antibody) |  | 3.23 | 
3 | EAG2378 (hu5c8 aglycosylated IgG1 T299R) (antibody) |  | 2.22 | 
4 | EAG2379 (hu5c8 aglycosylated IgG1 T299E) (antibody) |  | 3.71 | pIC50 (CD32a): 2.89
5 | EAG2380 (hu5c8 aglycosylated IgG1 T299F) (antibody) |  | 3.46 | 
6 | EAG2389 (hu5c8 aglycosylated IgG1 T299Q) (antibody) |  | 3.34 | 
7 | EAG2390 (hu5c8 aglycosylated IgG1 T299P) (antibody) |  | 3.41 | 
8 | EAG2476 (YC406-Fc; agly IgG4-Fc T299K, T307P, L309K, D399S, no Fab) (from UniProt P01861 99-325) | 2.88 |  | 
9 | EAG2478 (CN578-Fc; agly IgG1 Fc T299K, no Fab) (from UniProt P0DOX5 218-448) | 2.22 |  | 
10 | IgG1 T299A (hu5c8 aglycosylated IgG1) (antibody) |  |  | pIC50 (CD64 (FcγRI) [2]): 3.69
11 | IgG1 control antibody (hu5c8 wild-type glycosylated IgG1) | 3.98 |  | pIC50 (CD16 (FcγRIIIa V158) [4]): 4.00; pIC50 (CD64 (FcγRI) [2]): 5.02
